From paper PMC10777347, “De Novo Single-Stranded RNA-Binding Peptides Discovered by Codon-Restricted mRNA Display” (Biomacromolecules, 2023)

Tests used:
[1] = test system: AP2 (synthetic (de novo)); assay: spectral shift; conditions: Spectral shift: 10 mM Tris-HCl pH 8.0, 0.05% Tween 20, no added salt, 25 C, Cy5 oligo (20 nM stock), 30 min at RT; MST with oncogenic RNAs in human plasma-like …
[2] = test system: AP2-short (synthetic (de novo)); assay: spectral shift; conditions: Spectral shift: 10 mM Tris-HCl pH 8.0, 0.05% Tween 20, no added salt, 25 C, Cy5 oligo (20 nM stock), 30 min at RT; MST with oncogenic RNAs in human plasma-like …
[3] = test system: CP1 (synthetic (de novo)); assay: spectral shift; conditions: Spectral shift: 10 mM Tris-HCl pH 8.0, 0.05% Tween 20, no added salt, 25 C, Cy5 oligo (20 nM stock), 30 min at RT; MST with oncogenic RNAs in human plasma-like …
[4] = test system: AP2-short Q to S (synthetic (de novo)); assay: spectral shift; conditions: Spectral shift: 10 mM Tris-HCl pH 8.0, 0.05% Tween 20, no added salt, 25 C, Cy5 oligo (20 nM stock), 30 min at RT; MST with oncogenic RNAs in human plasma-like …
[5] = test system: AP2 QNQ to TNH (synthetic (de novo)); assay: spectral shift; conditions: Spectral shift: 10 mM Tris-HCl pH 8.0, 0.05% Tween 20, no added salt, 25 C, Cy5 oligo (20 nM stock), 30 min at RT; MST with oncogenic RNAs in human plasma-like …
[6] = test system: CP2 (synthetic (de novo)); assay: spectral shift; conditions: Spectral shift: 10 mM Tris-HCl pH 8.0, 0.05% Tween 20, no added salt, 25 C, Cy5 oligo (20 nM stock), 30 min at RT; MST with oncogenic RNAs in human plasma-like …
[7] = test system: CP1 (synthetic (de novo)); assay: MST; conditions: Spectral shift: 10 mM Tris-HCl pH 8.0, 0.05% Tween 20, no added salt, 25 C, Cy5 oligo (20 nM stock), 30 min at RT; MST with oncogenic RNAs in human plasma-like …
[8] = target: hnRNPK (UniProt P61978); assay: fluorescence anisotropy; conditions: Spectral shift: 10 mM Tris-HCl pH 8.0, 0.05% Tween 20, no added salt, 25 C, Cy5 oligo (20 nM stock), 30 min at RT; MST with oncogenic RNAs in human plasma-like …; cited from earlier work
[9] = target: Cdk6 3′UTR RNA; conditions: fluorescence anisotropy binding assay, previous study; read-out: KD^hnRNPK, Cdk6 3′UTR RNA; cited from earlier work
Experimental: To evaluate the synthetic ssRNA-binding peptide’s affinity for biologically derived RNA targets, we have chosen two cytosine-rich RNA motifs from the oncogenic Cdk6 3′UTR RNA and MYU lncRNA. These motifs have previously been identified as targets of hnRNPK,[45] and they both consist of extended cytosine repeats (>4 nt) within a necessary single-stranded region for the progression of colon cancer cells. […] The KD^CP1s were measured using microscale thermophoresis in a human plasma-like medium. Cytosines predicted to be single-stranded within RNA ligands are highlighted in red. Cytosine-to-adenine substitution is highlighted in blue. The predicted secondary structures are available in Figure S11. The complete thermodynamic plots are shown in Figure S12. *The KD^hnRNPKs are the dissociation ...

[10] = target: MYU lncRNA; conditions: fluorescence anisotropy binding assay, previous study; read-out: KD^hnRNPK, MYU lncRNA; cited from earlier work
Experimental: Figure 7 Assessment of the affinity of poly(C) RNA-binding peptides to cytosine-rich oncogenic RNA motifs. […] The KD^CP1s were measured using microscale thermophoresis in a human plasma-like medium. Cytosines predicted to be single-stranded within RNA ligands are highlighted in red. Cytosine-to-adenine substitution is highlighted in blue. The predicted secondary structures are available in Figure S11. The complete thermodynamic plots are shown in Figure S12. *The KD^hnRNPKs are the dissociation ...

Substance: AAAAAAAAAAAA [poly(A) DNA]
- binding signal (fold weaker than poly(A) RNA) [1]: 2

Substance: AAAAAAAAAAAA [poly(A) RNA]
- Kd [1]: 18800 nM
- Kd [2]: 82000 nM
- binding signal (fold weaker than poly(C) RNA) [3]: 4
- Kd [4]: 115000 nM

Substance: CCCCCCCCCCCC [poly(C) DNA]
- binding signal (fold weaker than poly(C) RNA) [3]: 7

Substance: CCCCCCCCCCCC [poly(C) RNA]
- Kd [5]: 120000 nM
- Kd [3]: 900 nM
- Kd [6]: 1200 nM

Substance: GGCUCCCCCGACCUCUGUGCUCCCCUCCCCCGACCUCUGUGC [MYU lncRNA motif]
- Kd [7]: 107 nM

Substance: GGUCCCCCGCCUCAUUCGCCCCUCUGCUCCC [Cdk6 3'UTR RNA motif]
- Kd [7]: 103 nM
- Kd [8]: 450 nM

Substance: hnRNPK: endogenous RNA-binding protein with KH domain, binds cytosine-rich RNA motifs
- Kd [9]: 450 nM
- Kd [10]: 70 ± 7 nM

Substance: poly(C) RNA / antisense DNA hybrid
- binding signal (fold weaker than poly(C) RNA) [3]: 6
